Broadly, the Kd is the concentration at which binding is half-saturated. One may read the stoichiometry N as the number of molecules, sites or subunits per partner or assembly.

The labels stand for the following.
B2: GLP (recombinant, full-length, untagged) (natural protein)
chain: MRSVEQQLSIVTEAAVAPEPVRIAIAEALGLMCAEEVQASRALPGFAQAAIDGYAVRAVDVGGEKSLSQQLPVAPPEKSLPVVGEVAAGSQQPLRLQPKQAVMVHTGAPLPMLADAVLPMAWSDRGRKRVTAQRPVRSGEFVRKEGDDIQPGDIAVSAGAVLGPAQIGLLAAVGRSKVLVYPRPRMSVISVGAELVDIDRQPGLGQVYDVNSYSLAAAGREAGADVYRYGIAAGEPRRIKEIIESQMLRSEIIVITGAVGGAGSAGVRQVLNELGDIDTERVAMHPGSVQGFGLLGENKIPCFLLPSNPVASLVIFETFVRPVVRMSLGKSNAARRVVRARALNHVVSVAGRKGFIRSRLMRDAETQDYLVEALGGATGAPSHLLAGLSEANGMIRIPEDVTEIRPGDVVDVIFLAQGR

The target in series [1] is Biotinylated His-GLPR (C. glutamicum ATCC 13032). Description: BLI. (Biolayer interferometry detects binding as a change in optical thickness at a sensor tip.)
The target of series [2] is B2. Description: BLI.
The series “crystal structure” deals with the molecule itself. Description: crystal structure.
The target of the next series is T1, His-SUMO-FtsZ (C. glutamicum, UniProt P94337 1-442).
T1 sequence: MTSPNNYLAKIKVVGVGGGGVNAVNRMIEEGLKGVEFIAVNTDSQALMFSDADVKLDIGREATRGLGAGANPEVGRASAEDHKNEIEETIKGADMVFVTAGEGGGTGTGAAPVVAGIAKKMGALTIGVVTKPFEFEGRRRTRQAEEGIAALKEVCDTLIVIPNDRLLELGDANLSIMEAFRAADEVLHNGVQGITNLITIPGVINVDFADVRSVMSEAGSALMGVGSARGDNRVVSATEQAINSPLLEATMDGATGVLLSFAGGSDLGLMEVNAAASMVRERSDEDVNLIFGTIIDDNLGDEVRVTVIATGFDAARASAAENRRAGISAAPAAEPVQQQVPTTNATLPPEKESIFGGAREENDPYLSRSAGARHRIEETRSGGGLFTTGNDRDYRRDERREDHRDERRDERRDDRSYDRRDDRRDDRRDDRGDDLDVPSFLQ
Briefly: BLI.

In series [1], “Wag31 (recombinant, full-length) (natural protein)” displayed an equilibrium dissociation constant (Kd) of 43.4 µM.
The same measure, in the same setting: then “Wag31_(1–61) (N-terminal DivIVA domain of Wag31) (domain or fragment)”, with 14.9 µM.

B1: GLPR, C-terminal His-tagged (receptor)
chain: MLHVSGILVIGLIVVVWLVVLAPLLLRGQKPIAKAGEAFDDTRVISEGGSNIPSPRRPGLSSAQLDDEEDTDDVDDDYEIVDSPSIFRPRKEEPVEEDLDTDVELEEDIEVSLETDDYVEPAPVVEVSQEWNVEDHYELDDSYDTPLDHLHPAARARAYEDFQEHQPEQQPEVEEFDADDELTEEDVAFAQRRRGRGYYDPEADREFAASQYVRRQRTLLGLAATVVISVILGFVFGGWVWGLPAVALAATALYLMALRSQVREENALRARRIRRLRRSRMGVRNSEDLPSRLRRPGAVVLELDDESPDFEGLPTVAMPEEPYYEEPRRNIRHLGQRRVS
As to B1, the Kd in series [2] amounted to 0.0055 µM.
Take B2: the “stoichiometry N” value in the series “crystal structure” came out at 2. The same molecule returned a dissociation constant Kd in the series with His-SUMO-FtsZ of 4.7 µM.

(Values after article PMC9915583 (bioRxiv, 2023).)
